Numbered stars: 1 amine (or outer) side, 2 acyl side, 3 side chain; on linkers, the order of the positions; unused ones are H or OH. Bridge positions count the residues as written; N and C are the ends. Side chains are listed from the residue outwards. Ends that are not written are not given here. * marks the point of attachment. C20 diacid = O=C(O)CCCCCCCCCCCCCCCCCCC(=O)*; γGlu = O=C(O)[C@H](CCC(=O)[*:2])N[*:1]; AEEA = NCCOCCOCC(=O)O
B1: N^ε1-[2-[2-[2-[[2-[2-[2-[[(4S)-4-carboxy-4-(19-carboxynonadecanoylamino)butanoyl]amino]ethoxy]ethoxy]acetyl]amino]ethoxy]ethoxy]acetyl]-[Arg17,Pro21,Pro27,Pro31 … (peptide)
peptide: K([AEEA-AEEA-γGlu-C20 diacid])CNTATCATQRLANFLRHSSPNFGAIPSSTPVGSNTY-NH2
modifications: disulfide 2-7; N-terminus assumed
SMILES: CC[C@H](C)[C@H](NC(=O)[C@H](C)NC(=O)CNC(=O)[C@H](Cc1ccccc1)NC(=O)[C@H](CC(N)=O)NC(=O)[C@@H]1CCCN1C(=O)[C@H](CO)NC(=O)[C@H](CO)NC(=O)[C@H](Cc1c[nH]cn1)NC(=O)[C@H](CCCNC(=N)N)NC(=O)[C@H](CC(C)C)NC(=O)[C@H](Cc1ccccc1)NC(=O)[C@H](CC(N)=O)NC(=O)[C@H](C)NC(=O)[C@H](CC(C)C)NC(=O)[C@H](CCCNC(=N)N)NC(=O)[C@H](CCC(N)=O)NC(=O)[C@@H](NC(=O)[C@H](C)NC(=O)[C@@H]1CSSC[C@H](NC(=O)[C@@H](N)CCCCNC(=O)COCCOCCNC(=O)COCCOCCNC(=O)CC[C@H](NC(=O)CCCCCCCCCCCCCCCCCCC(=O)O)C(=O)O)C(=O)N[C@@H](CC(N)=O)C(=O)N[C@@H]([C@@H](C)O)C(=O)N[C@@H](C)C(=O)N[C@@H]([C@@H](C)O)C(=O)N1)[C@@H](C)O)C(=O)N1CCC[C@H]1C(=O)N[C@@H](CO)C(=O)N[C@@H](CO)C(=O)N[C@H](C(=O)N1CCC[C@H]1C(=O)N[C@H](C(=O)NCC(=O)N[C@@H](CO)C(=O)N[C@@H](CC(N)=O)C(=O)N[C@H](C(=O)N[C@@H](Cc1ccc(O)cc1)C(N)=O)[C@@H](C)O)C(C)C)[C@@H](C)O
notes: also called compound 96
B2: N^ε1-[2-[2-[2-[[2-[2-[2-[[(4S)-4-carboxy-4-(19-carboxynonadecanoylamino)butanoyl]amino]ethoxy]ethoxy]acetyl]amino]ethoxy]ethoxy]acetyl]-[Arg17,Pro21,Pro27,Pro34 … (peptide)
peptide: K([AEEA-AEEA-γGlu-C20 diacid])CNTATCATQRLANFLRHSSPNFGAIPSSTNVGPNTY-NH2
modifications: disulfide 2-7; N-terminus assumed
SMILES: CC[C@H](C)[C@H](NC(=O)[C@H](C)NC(=O)CNC(=O)[C@H](Cc1ccccc1)NC(=O)[C@H](CC(N)=O)NC(=O)[C@@H]1CCCN1C(=O)[C@H](CO)NC(=O)[C@H](CO)NC(=O)[C@H](Cc1c[nH]cn1)NC(=O)[C@H](CCCNC(=N)N)NC(=O)[C@H](CC(C)C)NC(=O)[C@H](Cc1ccccc1)NC(=O)[C@H](CC(N)=O)NC(=O)[C@H](C)NC(=O)[C@H](CC(C)C)NC(=O)[C@H](CCCNC(=N)N)NC(=O)[C@H](CCC(N)=O)NC(=O)[C@@H](NC(=O)[C@H](C)NC(=O)[C@@H]1CSSC[C@H](NC(=O)[C@@H](N)CCCCNC(=O)COCCOCCNC(=O)COCCOCCNC(=O)CC[C@H](NC(=O)CCCCCCCCCCCCCCCCCCC(=O)O)C(=O)O)C(=O)N[C@@H](CC(N)=O)C(=O)N[C@@H]([C@@H](C)O)C(=O)N[C@@H](C)C(=O)N[C@@H]([C@@H](C)O)C(=O)N1)[C@@H](C)O)C(=O)N1CCC[C@H]1C(=O)N[C@@H](CO)C(=O)N[C@@H](CO)C(=O)N[C@H](C(=O)N[C@@H](CC(N)=O)C(=O)N[C@H](C(=O)NCC(=O)N1CCC[C@H]1C(=O)N[C@@H](CC(N)=O)C(=O)N[C@H](C(=O)N[C@@H](Cc1ccc(O)cc1)C(N)=O)[C@@H](C)O)C(C)C)[C@@H](C)O
notes: also called compound 98

Columns and labels:
[1] = target: T1, human calcitonin receptor (human, UniProt P30988 25-474); experiment: cell-based or functional assay
T1 sequence (looked up): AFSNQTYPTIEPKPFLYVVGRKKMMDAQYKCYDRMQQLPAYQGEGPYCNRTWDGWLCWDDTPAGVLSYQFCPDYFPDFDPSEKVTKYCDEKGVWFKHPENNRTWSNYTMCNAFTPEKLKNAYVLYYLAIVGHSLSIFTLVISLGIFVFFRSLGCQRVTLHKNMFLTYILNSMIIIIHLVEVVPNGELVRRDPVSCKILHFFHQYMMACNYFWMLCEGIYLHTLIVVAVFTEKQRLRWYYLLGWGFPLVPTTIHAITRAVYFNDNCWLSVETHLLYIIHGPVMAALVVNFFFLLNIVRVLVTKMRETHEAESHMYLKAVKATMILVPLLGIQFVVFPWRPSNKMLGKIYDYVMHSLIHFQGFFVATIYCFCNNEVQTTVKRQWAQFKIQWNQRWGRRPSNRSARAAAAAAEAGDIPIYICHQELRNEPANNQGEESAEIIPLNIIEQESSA

[2] = target: T2, human amylin receptor (amylin 3(a) receptor: human calcitonin receptor coexpressed with RAMP-3) (human, UniProt P30988 25-474; O60896 24-148); experiment: cell-based or functional assay
T2 sequence (looked up) 1: T1 sequence (looked up)
T2 sequence (looked up) 2: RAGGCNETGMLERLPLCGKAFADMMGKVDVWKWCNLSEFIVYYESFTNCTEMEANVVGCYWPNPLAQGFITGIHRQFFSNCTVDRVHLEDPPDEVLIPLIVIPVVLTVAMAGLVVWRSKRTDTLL

Row | Binder | Ratio hCT/hAmylin funct. [1] | hCTR funct. EC50 (pM) [1] [pM] | hAmylin-R funct. EC50 (pM) [2] [pM]
1 | B1 | 21 | 3800 | 181
2 | B2 | 19.5 | 1630 | 84
